This is an account of results in article PMC11117632.

For orientation: Kd means the concentration at which binding is half-saturated. A high value points to weaker binding.

In data set [1] the test system is inactivated SARS-CoV-2 virus (whole virion) (SARS-CoV-2 strain CN2). In words: EIS. The conditions noted are these: 5' SH, 3 x iSp18 spacer; binding buffer 50 mM HEPES pH 7.4, 100 mM NaCl, 5 mM KCl, 2 mM MgCl2, 1 mM CaCl2; room temperature in SELEX, ELONA temperature not stated.
Data set [2] has the same test system. In words: ELONA. Conditions: binding buffer 50 mM HEPES pH 7.4, 100 mM NaCl, 5 mM KCl, 2 mM MgCl2, 1 mM CaCl2; room temperature in SELEX, ELONA temperature not stated.
Data set [3] shares this test system. In words: ELONA competition. Conditions: binding buffer 50 mM HEPES pH 7.4, 100 mM NaCl, 5 mM KCl, 2 mM MgCl2, 1 mM CaCl2; room temperature in SELEX, ELONA temperature not stated.

In data set [1], “GCAATGGTACGGTACTTCCATGGCTGGTGCTTGAGGTGTGTGTGGGGGTAGGGCCAAAAGTGCACGCTACTTTGCTAA [thiolated aptamer 6.9]” yielded a binding signal (% impedance decrease) of 40.

Regarding “GCAATGGTACGGTACTTCCCGGGGCGGGCTGTCATGCCCATCCTACCGTGACCGCAAAAGTGCACGCTACTTTGCTAA [aptamer 6.8]”, the Kd in data set [2] is 21 nM.

For “GCAATGGTACGGTACTTCCATGGCTGGTGCTTGAGGTGTGTGTGGGGGTAGGGCCAAAAGTGCACGCTACTTTGCTAA [aptamer 6.9]”, the binding signal (% signal decrease) in data set [3] is 56. Moreover, in data set [2], the Kd came out at 9.6 nM.
